Tests used:
[1] = molecular target: monkey 4-1BB-his protein (monkey); assay: ELISA, coated monkey 4-1BB-his; Ab 0.0032 ug/ml
GITR = assay: ELISA, coated GITR; Ab concentration not given
[2] = molecular target: monkey 4-1BB-his protein (monkey); assay: ELISA, coated monkey 4-1BB-his; Ab 0.016 ug/ml
[3] = molecular target: monkey 4-1BB-his protein (monkey); assay: ELISA, coated monkey 4-1BB-his; Ab 10 ug/ml
[4] = molecular target: hFc-tagged human 4-1BB extracellular domain protein (4-1BB-hFc) (human) (UniProt Q07011); assay: ELISA, coated 4-1BB; Ab concentration not given
Sequence of hFc-tagged human 4-1BB extracellular domain protein (4-1BB-hFc) (human) (Q07011 24-186 limits assumed): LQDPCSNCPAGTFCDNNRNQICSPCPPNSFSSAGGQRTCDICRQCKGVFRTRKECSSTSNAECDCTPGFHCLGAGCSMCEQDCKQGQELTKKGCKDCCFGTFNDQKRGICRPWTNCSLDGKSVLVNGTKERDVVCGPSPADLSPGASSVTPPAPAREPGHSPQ

[5] = molecular target: monkey 4-1BB-his protein (monkey); assay: ELISA, coated monkey 4-1BB-his; Ab 0.0006 ug/ml
OX40 = assay: ELISA, coated OX40; Ab concentration not given
Sequence of OX40 (P43489 29-214): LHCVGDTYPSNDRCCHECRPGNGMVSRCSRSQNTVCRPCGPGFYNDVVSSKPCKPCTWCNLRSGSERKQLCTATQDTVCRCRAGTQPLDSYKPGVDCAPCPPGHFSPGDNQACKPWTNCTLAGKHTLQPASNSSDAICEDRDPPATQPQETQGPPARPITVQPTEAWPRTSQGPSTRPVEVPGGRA

[6] = molecular target: monkey 4-1BB-his protein (monkey); assay: ELISA, coated monkey 4-1BB-his; Ab 0.0001 ug/ml
[7] = molecular target: monkey 4-1BB-his protein (monkey); assay: ELISA, coated monkey 4-1BB-his; Ab 2 ug/ml
[8] = molecular target: monkey 4-1BB-his protein (monkey); assay: ELISA, coated monkey 4-1BB-his; Ab 0.08 ug/ml
[9] = molecular target: monkey 4-1BB-his protein (monkey); assay: ELISA, coated monkey 4-1BB-his; Ab 0.4 ug/ml

Sequence of GITR (Q9Y5U5 26-162): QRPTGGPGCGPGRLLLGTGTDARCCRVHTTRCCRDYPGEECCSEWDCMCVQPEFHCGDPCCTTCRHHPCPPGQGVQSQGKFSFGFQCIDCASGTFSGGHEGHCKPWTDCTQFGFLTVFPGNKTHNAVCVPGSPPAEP

## IgG control (human IgG) (antibody)
[1]
  OD450 nm: 0.07 OD450 nm
GITR
  OD450 nm: 0.24 OD450 nm
[2]
  OD450 nm: 0.07 OD450 nm
[3]
  OD450 nm: 0.07 OD450 nm
[4]
  OD450 nm: 0.36 OD450 nm
[5]
  OD450 nm: 0.07 OD450 nm
OX40
  OD450 nm: 0.32 OD450 nm
[6]
  OD450 nm: 0.07 OD450 nm
[7]
  OD450 nm: 0.07 OD450 nm
[8]
  OD450 nm: 0.07 OD450 nm
[9]
  OD450 nm: 0.07 OD450 nm

Reference: patent US20200347144A1
